B1: Heterogeneous nuclear ribonucleoprotein U-like protein 2, residues 1 to 40; numbered along this chain, Q1KMD3 (parent)
chain: MEVKRLKVTELRSELQRRGLDSRGLKVDLAQRLQEALDAE

Variants of: B1
Test: abundance fitness (aPCA) (normalised: wild type 0, dead -1); higher = more abundant; growth selection in yeast, the domain comes from the species named
Details: Homo sapiens

Abundance fitness: each site, then its substitutions
Q16: Y -0.405; E 0.098; M -0.013; H -0.178; W -0.539; A -0.047; C -0.299; I 0.169; L -0.09; D -0.079
K26: T -0.154; F -0.361; Q 0.008; V -0.149; W -0.146; P -0.002; Y -0.103; M -0.048
E40: N -0.253; G -0.224; V -0.529; R -0.381; L -0.849
D21: M -0.453; A -0.41; C -0.068; F -0.591; W -0.74; K -0.428; R -0.645; G -0.572; L -0.557
L20: N -0.77; I -0.151; Y -0.462; C -0.265; S -0.496; A -0.352; M -0.033; V -0.358
R23: G 0.091; N 0.127; H 0.092; K 0.082; D 0.136; P -0.6; A 0.158; S 0.167; F -0.137
V3: Q -0.328; F -0.374; C -0.357; D -0.202; P -0.077; Y -0.226; S -0.245; K -0.501; L -0.122
Q31: I 0.012; M -0.041; S 0.058; W -0.176; T 0.085; P -0.121; C -0.016
L11: C -0.988; A -0.458; F -0.574; D -0.436; Q -0.448; E -0.336; K -0.495; W -1.08
Q34: N -0.119; C -0.43; F -0.722; R -0.308; K -0.18; D -0.256; A -0.205; S -0.171
E10: Y -0.869; N -0.726; R -0.619; V -0.376; M -0.329; Q -0.023; T -0.305; W -0.599
V8: N -0.27; Y 0.072; I -0.265; K -0.163; D 0.024; R -0.334; L -0.025; C -0.146; F -0.289; S -0.167
E35: L -0.168; T 0.005; R -0.047; Y -0.294; K 0.058; S -0.018; G -0.068; P -0.339; D 0.036; H -0.055; C -0.052
E2: G -0.371; T -0.243; H -0.201; Y -0.161; V -0.336; K -0.432; P -0.844; Q -0.193; S -0.243
L29: R -0.356; S -0.201; C -0.137; E -0.174; Y -0.486
E14: R -0.752; S -0.6; A -0.34; T -0.869; K -0.782; V -0.845; G -0.743; F -0.752; L -0.311; W -0.942; P -0.953
D38: V -0.231; C -0.157; M -0.169; E -0.013; P -0.402; R -0.217; S -0.19; A -0.198; Y -0.243
G24: C -0.773; A -0.832; Q -0.612; M -0.81
T9: K 0.099; M 0.074; C -0.054; H 0.163; Y -0.135; R -0.012
R18: Q -0.614; I -0.721; L -0.228; T -0.627; S -0.615; E -0.571; H -0.726; W -1.08; M -0.215
K7: S 0.141; I -0.388; L -0.143; P -0.065; G 0.015; V -0.274; C -0.158; A -0.069
A36: I -0.314; Y -0.231; P -0.407; D -0.371; E -0.213; C -0.048; S -0.138; K -0.354
A30: W -0.236; G -0.361; R 0.046; Q 0.106; L -0.21; F -0.217
V27: W -0.339; N 0.049; K 0.087; G -0.014; C 0.09; T -0.063; S 0.086; M 0.002
L37: N -0.381; M 0.001; H -0.032; G -0.319; S -0.346; E -0.157; F -0.112
L15: Y -0.582; C -0.25; G -0.614; K -0.651; D -0.344; Q -0.405; A -0.494
L33: F -0.733; I -0.843; P -0.06; D -0.239; H -0.467; E -0.085; M -0.239; T -0.349; S -0.243; C -0.403; Q -0.269
G19: D -0.006; K -0.545; H -0.196; Q -0.178; C -0.379; M -0.676; V -0.789; I -1.12
R5: Y -0.247; Q 0.006; I -0.237; E 0.077; K 0.194; F -0.302; M -0.038; W -0.256; S 0.046; C -0.129; N -0.03; A 0.005
S22: W -0.011; L -0.153; A 0.063; H 0.08; C -0.08; F 0.176; T 0.142; P 0.12; E -0.02
M1: Y -0.749; H -1.03; Q -0.514; G -0.383; S -0.589; K -0.136; F -0.179; T -0.564
L6: C -1.02; H -0.496; G -0.485; I -0.7; Y -0.46; E -0.26; N -0.236; K -0.144; T 0.024; S -0.476; D -0.845; M 0.348; P -0.48
R32: S -0.371; A -0.394; E -0.221; P -0.402; W -1; F -1.02; C -0.441; G -0.339; Q -0.262
A39: I -0.497; S -0.06; W -0.263; R 0.017; D -0.185; L -0.118; F -0.159; Q 0.005
L25: Q 0.046; E 0.257; C 0.019; D 0.151; M -0.096; V 0.066; Y -0.025; G 0.095; S 0.118; I -0.095
R12: E -0.147; V -0.112; G -0.507; T -0.165; F -0.574; P -0.751; H -0.339
S13: K 0.085; T 0.022; P -0.385; Y 0.065; R 0.055; V -0.006; Q 0.146; M -0.058; A 0.153; I 0.039
K4: W -0.097; A -0.06; I -0.317; P -0.37; L -0.123
D28: I -0.326; F -0.896; S -0.407; V -0.119; R -0.342; N -0.248; E 0.086; A -0.09; W -1.35
R17: V -0.219; K 0.112; D -0.218; L -0.129; C -0.282; P -0.432; H -0.276; A 0.053

Reference: the Human Domainome abundance scans (Beltran et al. 2025)
